From patent US20020090680A1

Target: IL-9R/h16445 cytoplasmic-domain receptor chimera (human)
Test: cell-based or functional assay

Chain of IL-9R/h16445 cytoplasmic-domain receptor chimera (human) (Q9HBE5 254-538, change not shown): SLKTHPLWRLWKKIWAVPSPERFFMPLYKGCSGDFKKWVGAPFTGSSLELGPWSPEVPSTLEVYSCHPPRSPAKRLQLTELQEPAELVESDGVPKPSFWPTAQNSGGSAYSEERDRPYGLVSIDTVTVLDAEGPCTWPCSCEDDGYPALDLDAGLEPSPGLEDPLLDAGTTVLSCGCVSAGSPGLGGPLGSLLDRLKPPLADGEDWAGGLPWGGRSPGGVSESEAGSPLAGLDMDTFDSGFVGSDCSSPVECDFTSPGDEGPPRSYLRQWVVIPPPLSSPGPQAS

CAT expression (HRRE-CAT reporter, HepG2 cells): > 30 fold
Substance: IL-9 (ligand)
